Assay results from EP1747015B1 (Janssen Biotech, Inc., dated 2012).

T1: murine Tissue Factor in murine brain extracts (murine, UniProt P20352 29-294)
T1 sequence (looked up): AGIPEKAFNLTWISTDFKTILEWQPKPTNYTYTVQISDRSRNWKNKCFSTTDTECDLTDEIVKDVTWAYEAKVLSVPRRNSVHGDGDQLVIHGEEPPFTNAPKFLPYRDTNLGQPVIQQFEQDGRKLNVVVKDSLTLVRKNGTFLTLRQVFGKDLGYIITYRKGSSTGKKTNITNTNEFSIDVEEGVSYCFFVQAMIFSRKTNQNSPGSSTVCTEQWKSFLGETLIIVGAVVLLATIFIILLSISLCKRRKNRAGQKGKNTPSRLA

T2: murine Tissue Factor on B6F10 melanoma cells (murine, UniProt P20352 29-294)
T2 construct: whole, on cells; also called cell-associated mTF
T2 sequence (looked up): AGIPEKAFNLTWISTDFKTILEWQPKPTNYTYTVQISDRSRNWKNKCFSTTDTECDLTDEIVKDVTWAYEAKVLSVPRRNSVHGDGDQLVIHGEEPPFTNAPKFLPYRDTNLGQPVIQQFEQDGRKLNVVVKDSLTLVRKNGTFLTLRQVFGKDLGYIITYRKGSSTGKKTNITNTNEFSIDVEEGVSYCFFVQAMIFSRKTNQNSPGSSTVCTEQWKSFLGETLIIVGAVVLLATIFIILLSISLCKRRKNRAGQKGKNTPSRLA

B1: PHD126 Fab (Fab, V domains shown)
VH: QVQLVQSGAEVKKPGESLKISCKGSYSFSNYWIGWVRQMPGKGLEWMGFIDPDDSDTNYSPSFQGQVTISADKSISTAYLQWSSLKASDTAMYYCARALYMQGGSFDSWGQGTLVTVSS
VL: DIELTQPPSVSVAPGQTARISCSGDNLGSYYVSWYQQKPGQAPVLVIYRDTDRPSGIPERFSGSNSGNTATLTISGTQAEDEADYYCQSYDYGVSNQVFGGGTKLTVLG
B2: PHD104 Fab (Fab, V domains shown)
VH: QVQLVQSGAEVKKPGESLKISCKGSYSFTSNWIGWVRQMPGKGLEWMGWIYPSDSMTRYSPSFQGQVTISADKSISTAYLQWSSLKASDTAMYYCARYLFGLFDNWGQGTLVTVSS
VL: DIELTQPPSVSVAPGQTARISCSGDNLGSYYVSWYQQKPGQAPVLVIYNDNNRPSGIPERFSGSNSGNTATLTISGTQAEDEADYYCATYDSSTDVFGGGTKLTVLG
B3: PHD127 Fab (Fab, V domains shown)
VH: QVQLVQSGAEVKKPGESLKISCKGSYSFTNSWISWVRQMPGKGLEWMGIIDPDDSYTSYSPSFQGQVTISADKSISTAYLQWSSLKASDTAMYYCARGAGYGRMFGDVWGQGTLVTVSS
VL: DIELTQPPSVSVAPGQTARISCSGDNLGSYYASWYQQKPGQAPVLVIYQDDNRPSGIPERFSGSNSGNTATLTISGTQAEDEADYYCGAYTYSTSWVFGGGTKLTVLG
notes: Human HuCAL Fab; 8 (VH) and 9 (VL) for PHD127 are inferred from the order of the words and must be checked against the listing
B4: PHD103 Fab (Fab, V domains shown)
VH: QVQLVQSGAEVKKPGESLKISCKGSGYSFSNSWIAWVRQMPGKGLEWMGGIIGPGHSYTKYSPSFQGQVTISADKSISTAYLQWSSLKASDTAMYYCARINMGYFDYWGQGTLVTVSS
VL: DIELTQPPSVSVAPGQTARISCSGDSLGLKKFVSWYQQKPGQAPVLVIYDDSNRPSGIPERFSGSNSGNTATLTISGTQAEDEADYYCGTYDQTIGHDVVFGGGTKLTVLG

Columns and labels:
[1] = target: T1, murine Tissue Factor in murine brain …; test: cell-based or functional assay
[2] = target: T2, murine Tissue Factor on B6F10 melanoma …; test: FACS on B6F10 melanoma cells that express mTF

EC50 Conc. (ug/ml), inhibition of fibrin clot formation in human plasma [1] [µg/mL]	EC50 [2] [nM]	Binder
0.23	–	B1
23.8	–	B2
0.82	4.35	B3
63.3	–	B4
